“Also recorded” adds a separate entry of the source. No end group written: not given here.
How the values were obtained:
breast cancer xenograft = conditions: mouse xenograft models of breast cancer; administration of calcitonin; cited from earlier work
T47D = conditions: cancer cell lines such as T47D; cited from earlier work
CTR [1] = target: T1, CTR (Homo sapiens, UniProt P30988); assay: Stimulation of cAMP production (adenylyl cyclase activity) in GBM cell line A172; type: cell-based; conditions: 10^−6M sCT (8-32)
T1 construct: cMyc; expressed in transfected cells
T1 sequence (P30988 25-474): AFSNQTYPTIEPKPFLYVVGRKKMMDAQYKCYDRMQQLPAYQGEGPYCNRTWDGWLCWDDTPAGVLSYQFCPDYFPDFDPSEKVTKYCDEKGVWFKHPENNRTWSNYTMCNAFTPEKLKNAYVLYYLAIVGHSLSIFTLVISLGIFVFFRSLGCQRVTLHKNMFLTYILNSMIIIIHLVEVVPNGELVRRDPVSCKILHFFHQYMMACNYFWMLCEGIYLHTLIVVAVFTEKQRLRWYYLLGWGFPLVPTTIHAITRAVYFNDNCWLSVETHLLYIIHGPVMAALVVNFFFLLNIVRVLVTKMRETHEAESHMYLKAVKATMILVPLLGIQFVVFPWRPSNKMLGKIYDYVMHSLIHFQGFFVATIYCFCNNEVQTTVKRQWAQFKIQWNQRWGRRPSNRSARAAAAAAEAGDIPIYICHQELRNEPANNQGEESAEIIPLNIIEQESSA
From the text: FIG. 6. […]. (C) is an immunoblot of a crude membrane preparation from the cell line A172 and probed with the anti-CTR antibody MCA2191.
(§1) The glioblastoma cell line A172 was maintained in DMEM/10% FBS.
FIG. 6 illustrates the concentration response curves and immunoblot for the GBM cell line A172. […]. The stimulation was inhibited by the antagonist 10^−6M sCT (8-32). In immunoblots (C) of whole cell lysates of A172 probed with the anti-CTR antibody MCA2191, there is a minor band that runs with a mobility of ˜70 kD and a major band at 52 kD.

CTR [2] = target: T1, CTR; assay: Inhibition of phosphorylation of ERK1/2 in GBM cell line A172; type: cell-based; conditions: 10^−6M sCT (8-32)
From the text: FIG. 6. […] (C) is an immunoblot of a crude membrane preparation from the cell line A172 and probed with the anti-CTR antibody MCA2191.
as §1
FIG. 6 illustrates the concentration response curves and immunoblot for the GBM cell line A172.

[3] = target: human calcitonin receptor, endogenous (GBM tissue, A172 glioblastoma cell line) (human) (UniProt P30988); assay: cell-based or functional assay; conditions: scale: log EC50

calcitonin (CGNLSTCMLGTYTQDFNKFHTFPQTAIGVGAP; ends and bridges not checked; cysteine pairing not given here; UniProt P01258 85-116, looked up) [calcitonin (CT), calcitonin receptor agonist]
tumor volume (breast cancer xenograft): significantly reduced | cell proliferation (T47D): inhibits cell proliferation

sCT (8-32): antagonist (also called inverse agonist) of CTR (VLGKLSQELHKLQTYPRTNTGSGTP)
effect on the hCT stimulation of adenylyl cyclase activity (CTR [1]): inhibited | effect on the hCT inhibition of ERK1/2 phosphorylation (CTR [2]): inhibited; also recorded: antagonised

human CT (from UniProt P01258 85-116) (ligand)
log EC50, inhibition of phosphorylation of ERK1/2 in the GBM cell line A172 [3]: -10.5 | log EC50, stimulation of adenylyl cyclase activity (cAMP production) in the GBM cell line A172 [3]: -9.9

Reference: patent US20130230453A1, “DIAGNOSIS AND TREATMENT OF BRAIN TUMORS” (Welcome Receptor Antibodies Pty Ltd, priority 2010, published 2013)
